Reference: patent US20190330277A1

What was measured:
Assay in all cases: ELISA, variant from culture supernatant on Ni-NTA plate
[1] = biological target: RB94 sc9 DS-CAV1 A149C-Y458C L373R
[2] = biological target: RB94 sc9 DS-CAV1 A149C-Y458C L373R Long S190V
391-2-DS-Cav1-BZGJ9_gyc7 = biological target: 391-2-DS-Cav1-BZGJ9_gyc7
[3] = biological target: 391-2-DS-Cav1_ sc9_I28C-G464C

motavizumab (antibody)
ELISA binding value [1]: 0.564 | ELISA binding value [2]: 0.537 | ELISA binding value (391-2-DS-Cav1-BZGJ9_gyc7): 0.977 | ELISA binding value [3]: 0.569
